Where “and” joins values, the source holds several entries; their conditions need not be identical. Equal values may be shown once.
T1: mpl-IgG (chimeric molecule comprising the entire extracellular domain of human mpl, amino acids 1-491, and … (human, UniProt P40238 26-491))
T1 construct: range 1-491; Expressed in 293 cells; no cleavage site is stated; Used immobilized on Ultralink or NHS-superose, captured on ELISA plates, or soluble; also called soluble mpl-IgG; soluble human mpl-IgG; not shown: Fc region of a human IgG1 molecule
T1 sequence (looked up): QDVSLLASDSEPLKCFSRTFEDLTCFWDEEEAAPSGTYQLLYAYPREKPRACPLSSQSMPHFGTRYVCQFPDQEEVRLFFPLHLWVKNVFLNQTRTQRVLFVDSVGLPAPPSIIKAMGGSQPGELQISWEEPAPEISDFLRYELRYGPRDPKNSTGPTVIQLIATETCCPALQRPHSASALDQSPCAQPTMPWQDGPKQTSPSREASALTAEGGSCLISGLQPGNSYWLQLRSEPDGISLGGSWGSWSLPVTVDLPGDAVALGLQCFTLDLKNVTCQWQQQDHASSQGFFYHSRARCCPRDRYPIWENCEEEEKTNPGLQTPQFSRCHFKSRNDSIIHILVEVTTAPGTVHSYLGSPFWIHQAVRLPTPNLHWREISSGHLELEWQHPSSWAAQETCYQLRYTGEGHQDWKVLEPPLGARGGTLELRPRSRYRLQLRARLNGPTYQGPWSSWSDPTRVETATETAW


Experiments:
[1] = molecular target: T1, mpl-IgG (chimeric molecule comprising …); assay: mpl receptor-based ELISA: mpl-IgG captured on an anti-human IgG (Fc) plate, bound TPO detected with biotinylated rabbit antibodies to TPO155
Method: (§1) ELISA plates were coated with rabbit F(ab')_2 anti-human IgG (Fc) in pH 9.6 carbonate buffer at 4° C. overnight. Plates were blocked with 0.5% bovine serum albumin in PBS at room temperature for one hour. […] Bound TPO was detected with protein A purified, biotinylated rabbit antibodies to $TPO155$ which was produced in *E. coli* (1 hour incubation), followed by streptavidin-peroxidase (30 min. incubation) and 3,3',5,5'-tetramethyl benzidine as the substrate. The absorbance was read at 450 nm. Plates were washed between steps. For data analysis, the standard curve is fitted using a four-parameter curve fitting program by Kaleidagraph. Concentrations of the samples were calculated from the standard curve.

[2] = molecular target: T1, mpl-IgG (chimeric molecule comprising …); assay: mpl receptor based ELISA (captured mpl-IgG)
Method: as §1

EC50 [1] | Binder | EC50 [2]
0.0019 µg/mL and 0.12 nM | TPO (Met^-1 1-153), refolded, produced in E. coli (ligand, non-glycosylated; disulfides between cysteines 1-4 and 2-3, Encoded by plasmid pMP210-1) MSPAPPACDLRVLSKLLRDSHVLHSRLSQCPEVHPLPTPVLLPAVDFSLGEWKTQMEETKAQDILGAVTLLLEGVMAARGQLGPTCLSSLLGQLSGQVRLLLGALQSLLGTQLPPQGRTTAHKDPNAIFLSFQHLLRGKVRFLMLVGGSTLCVR | 
 | TPO (1-155) with authentic N-terminus, generated by thrombin cleavage of T-H8MLF (ligand, Only very minor (<5%) internal cleavage occurred; also called cleaved variant (3)) SPAPPACDLRVLSKLLRDSHVLHSRLSQCPEVHPLPTPVLLPAVDFSLGEWKTQMEETKAQDILGAVTLLLEGVMAARGQLGPTCLSSLLGQLSGQVRLLLGALQSLLGTQLPPQGRTTAHKDPNAIFLSFQHLLRGKVRFLMLVGGSTLCVRRA | 0.002 µg/mL to 0.004 µg/mL (2×) and 0.12 nM and 0.24 nM

Reference: patent US8147844 (Genentech, dated 2012)
